Experimental data as given in patent publication US20150344570A1 (published 2015).

T1: FcγRIIa H (FcgRIIa type H, His at position 131), extracellular domain with C-terminal His tag (human, UniProt P12318 34-217)
T1 construct: extracellular domain; also called 2aH; FcgRIIa H; not shown: His tag at the C terminus
T1 sequence (looked up): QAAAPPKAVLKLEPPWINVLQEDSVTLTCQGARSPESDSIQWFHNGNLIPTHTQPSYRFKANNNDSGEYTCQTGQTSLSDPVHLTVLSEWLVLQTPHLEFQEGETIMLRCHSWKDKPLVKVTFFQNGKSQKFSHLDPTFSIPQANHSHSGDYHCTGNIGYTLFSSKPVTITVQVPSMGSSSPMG

T2: FcγRIIb, extracellular domain with C-terminal His tag (human, UniProt P31994 43-217)
T2 construct: extracellular domain; also called 2b; FcgRIIb; not shown: His tag at the C terminus
T2 sequence (looked up): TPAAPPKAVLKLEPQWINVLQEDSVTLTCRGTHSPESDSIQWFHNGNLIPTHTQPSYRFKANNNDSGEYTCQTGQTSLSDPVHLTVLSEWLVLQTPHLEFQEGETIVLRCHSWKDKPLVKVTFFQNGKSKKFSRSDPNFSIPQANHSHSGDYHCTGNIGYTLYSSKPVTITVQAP


How the values were obtained:
[1] = molecular target: T1, FcγRIIa H (FcgRIIa type H, His at …); experiment: SPR (Biacore), relative binding, GpH7-A5/GpH7-B3/GpL16-k0 = 100
[2] = molecular target: T2, FcγRIIb, extracellular domain with …; experiment: as above

| Binder | He/Con_2aH [1] | He/Con_2b [2] |
| --- | --- | --- |
| GpH7-A5/GpH7-B3 variant K326_16H/GpL16-k0 (antibody, human IgG1, kappa, He Ab; alteration in one H chain only; also called He Ab) heavy 1: not shown heavy 2: not shown light: DIVMTQSPLSLPVTPGEPASISCQASESLVHSNRNTYLHWYLQKPGQSPQLLIYKVSNRFSGVPDRFSGSGSGTDFTLKISRVEAEDVGVYYCSQNTHVPPTFGQGTKVEIERTVAAPSVFIFPPSDEQLKSGTASVVCLLNNFYPREAKVQWKVDNALQSGNSQESVTEQDSKDSTYSLSSTLTLSKADYEKHKVYACEVTHQGLSSPVTKSFNRGEC | 97.9 % of control | 119 % of control |
| GpH7-A5/GpH7-B3 variant K334_12R/GpL16-k0 (antibody, human IgG1, kappa, He Ab; alteration in one H chain only; also called He Ab) heavy 1: not shown heavy 2: not shown light: DIVMTQSPLSLPVTPGEPASISCQASESLVHSNRNTYLHWYLQKPGQSPQLLIYKVSNRFSGVPDRFSGSGSGTDFTLKISRVEAEDVGVYYCSQNTHVPPTFGQGTKVEIERTVAAPSVFIFPPSDEQLKSGTASVVCLLNNFYPREAKVQWKVDNALQSGNSQESVTEQDSKDSTYSLSSTLTLSKADYEKHKVYACEVTHQGLSSPVTKSFNRGEC | 99.7 % of control | 111 % of control |
| GpH7-A5/GpH7-B3 variant L328_03V/GpL16-k0 (antibody, human IgG1, kappa, He Ab; alteration in one H chain only; also called He Ab) heavy 1: not shown heavy 2: not shown light: DIVMTQSPLSLPVTPGEPASISCQASESLVHSNRNTYLHWYLQKPGQSPQLLIYKVSNRFSGVPDRFSGSGSGTDFTLKISRVEAEDVGVYYCSQNTHVPPTFGQGTKVEIERTVAAPSVFIFPPSDEQLKSGTASVVCLLNNFYPREAKVQWKVDNALQSGNSQESVTEQDSKDSTYSLSSTLTLSKADYEKHKVYACEVTHQGLSSPVTKSFNRGEC | 97.8 % of control | 126 % of control |
| GpH7-A5/GpH7-B3 variant K326_20W/GpL16-k0 (antibody, human IgG1, kappa, He Ab; alteration in one H chain only; also called He Ab) heavy 1: not shown heavy 2: not shown light: DIVMTQSPLSLPVTPGEPASISCQASESLVHSNRNTYLHWYLQKPGQSPQLLIYKVSNRFSGVPDRFSGSGSGTDFTLKISRVEAEDVGVYYCSQNTHVPPTFGQGTKVEIERTVAAPSVFIFPPSDEQLKSGTASVVCLLNNFYPREAKVQWKVDNALQSGNSQESVTEQDSKDSTYSLSSTLTLSKADYEKHKVYACEVTHQGLSSPVTKSFNRGEC | 83.3 % of control | 148 % of control |
| GpH7-A5/GpH7-B3 variant L328_09D/GpL16-k0 (antibody, human IgG1, kappa, He Ab; alteration in one H chain only; also called He Ab) heavy 1: not shown heavy 2: not shown light: DIVMTQSPLSLPVTPGEPASISCQASESLVHSNRNTYLHWYLQKPGQSPQLLIYKVSNRFSGVPDRFSGSGSGTDFTLKISRVEAEDVGVYYCSQNTHVPPTFGQGTKVEIERTVAAPSVFIFPPSDEQLKSGTASVVCLLNNFYPREAKVQWKVDNALQSGNSQESVTEQDSKDSTYSLSSTLTLSKADYEKHKVYACEVTHQGLSSPVTKSFNRGEC | 58.5 % of control | 199 % of control |
| GpH7-A5/GpH7-B3 variant K334_10E/GpL16-k0 (antibody, human IgG1, kappa, He Ab; alteration in one H chain only; also called He Ab) heavy 1: not shown heavy 2: not shown light: DIVMTQSPLSLPVTPGEPASISCQASESLVHSNRNTYLHWYLQKPGQSPQLLIYKVSNRFSGVPDRFSGSGSGTDFTLKISRVEAEDVGVYYCSQNTHVPPTFGQGTKVEIERTVAAPSVFIFPPSDEQLKSGTASVVCLLNNFYPREAKVQWKVDNALQSGNSQESVTEQDSKDSTYSLSSTLTLSKADYEKHKVYACEVTHQGLSSPVTKSFNRGEC | 98.2 % of control | 114 % of control |
| GpH7-A5/GpH7-B3 variant L328_10E/GpL16-k0 (antibody, human IgG1, kappa, He Ab; alteration in one H chain only; also called He Ab) heavy 1: not shown heavy 2: not shown light: DIVMTQSPLSLPVTPGEPASISCQASESLVHSNRNTYLHWYLQKPGQSPQLLIYKVSNRFSGVPDRFSGSGSGTDFTLKISRVEAEDVGVYYCSQNTHVPPTFGQGTKVEIERTVAAPSVFIFPPSDEQLKSGTASVVCLLNNFYPREAKVQWKVDNALQSGNSQESVTEQDSKDSTYSLSSTLTLSKADYEKHKVYACEVTHQGLSSPVTKSFNRGEC | 55.5 % of control | 172 % of control |
| GpH7-A5/GpH7-B3 variant K334_20W/GpL16-k0 (antibody, human IgG1, kappa, He Ab; alteration in one H chain only; also called He Ab) heavy 1: not shown heavy 2: not shown light: DIVMTQSPLSLPVTPGEPASISCQASESLVHSNRNTYLHWYLQKPGQSPQLLIYKVSNRFSGVPDRFSGSGSGTDFTLKISRVEAEDVGVYYCSQNTHVPPTFGQGTKVEIERTVAAPSVFIFPPSDEQLKSGTASVVCLLNNFYPREAKVQWKVDNALQSGNSQESVTEQDSKDSTYSLSSTLTLSKADYEKHKVYACEVTHQGLSSPVTKSFNRGEC | 97.6 % of control | 104 % of control |
| GpH7-A5/GpH7-B3 variant K334_05P/GpL16-k0 (antibody, human IgG1, kappa, He Ab; alteration in one H chain only; also called He Ab) heavy 1: not shown heavy 2: not shown light: DIVMTQSPLSLPVTPGEPASISCQASESLVHSNRNTYLHWYLQKPGQSPQLLIYKVSNRFSGVPDRFSGSGSGTDFTLKISRVEAEDVGVYYCSQNTHVPPTFGQGTKVEIERTVAAPSVFIFPPSDEQLKSGTASVVCLLNNFYPREAKVQWKVDNALQSGNSQESVTEQDSKDSTYSLSSTLTLSKADYEKHKVYACEVTHQGLSSPVTKSFNRGEC | 97.6 % of control | 105 % of control |
| GpH7-A5/GpH7-B3 variant L328_07I/GpL16-k0 (antibody, human IgG1, kappa, He Ab; alteration in one H chain only; also called He Ab) heavy 1: not shown heavy 2: not shown light: DIVMTQSPLSLPVTPGEPASISCQASESLVHSNRNTYLHWYLQKPGQSPQLLIYKVSNRFSGVPDRFSGSGSGTDFTLKISRVEAEDVGVYYCSQNTHVPPTFGQGTKVEIERTVAAPSVFIFPPSDEQLKSGTASVVCLLNNFYPREAKVQWKVDNALQSGNSQESVTEQDSKDSTYSLSSTLTLSKADYEKHKVYACEVTHQGLSSPVTKSFNRGEC | 93.9 % of control | 160 % of control |
| GpH7-A5/GpH7-B3 variant K334_02A/GpL16-k0 (antibody, human IgG1, kappa, He Ab; alteration in one H chain only; also called He Ab) heavy 1: not shown heavy 2: not shown light: DIVMTQSPLSLPVTPGEPASISCQASESLVHSNRNTYLHWYLQKPGQSPQLLIYKVSNRFSGVPDRFSGSGSGTDFTLKISRVEAEDVGVYYCSQNTHVPPTFGQGTKVEIERTVAAPSVFIFPPSDEQLKSGTASVVCLLNNFYPREAKVQWKVDNALQSGNSQESVTEQDSKDSTYSLSSTLTLSKADYEKHKVYACEVTHQGLSSPVTKSFNRGEC | 97 % of control | 108 % of control |
| GpH7-A5/GpH7-B3 variant K334_18N/GpL16-k0 (antibody, human IgG1, kappa, He Ab; alteration in one H chain only; also called He Ab) heavy 1: not shown heavy 2: not shown light: DIVMTQSPLSLPVTPGEPASISCQASESLVHSNRNTYLHWYLQKPGQSPQLLIYKVSNRFSGVPDRFSGSGSGTDFTLKISRVEAEDVGVYYCSQNTHVPPTFGQGTKVEIERTVAAPSVFIFPPSDEQLKSGTASVVCLLNNFYPREAKVQWKVDNALQSGNSQESVTEQDSKDSTYSLSSTLTLSKADYEKHKVYACEVTHQGLSSPVTKSFNRGEC | 99.7 % of control | 115 % of control |
| GpH7-A5/GpH7-B3 variant L328_04F/GpL16-k0 (antibody, human IgG1, kappa, He Ab; alteration in one H chain only; also called He Ab) heavy 1: not shown heavy 2: not shown light: DIVMTQSPLSLPVTPGEPASISCQASESLVHSNRNTYLHWYLQKPGQSPQLLIYKVSNRFSGVPDRFSGSGSGTDFTLKISRVEAEDVGVYYCSQNTHVPPTFGQGTKVEIERTVAAPSVFIFPPSDEQLKSGTASVVCLLNNFYPREAKVQWKVDNALQSGNSQESVTEQDSKDSTYSLSSTLTLSKADYEKHKVYACEVTHQGLSSPVTKSFNRGEC | 71.7 % of control | 219 % of control |

Results, then the binder that gave them:

| He/Con_2aH [1] | He/Con_2b [2] | Binder |
| --- | --- | --- |
| 86.8 % of control | 105 % of control | GpH7-A5/GpH7-B3 variant L328_19Q/GpL16-k0 (antibody, human IgG1, kappa, He Ab; alteration in one H chain only; also called He Ab) heavy 1: not shown heavy 2: not shown light: DIVMTQSPLSLPVTPGEPASISCQASESLVHSNRNTYLHWYLQKPGQSPQLLIYKVSNRFSGVPDRFSGSGSGTDFTLKISRVEAEDVGVYYCSQNTHVPPTFGQGTKVEIERTVAAPSVFIFPPSDEQLKSGTASVVCLLNNFYPREAKVQWKVDNALQSGNSQESVTEQDSKDSTYSLSSTLTLSKADYEKHKVYACEVTHQGLSSPVTKSFNRGEC |
| 56.8 % of control | 101 % of control | GpH7-A5/GpH7-B3 variant N325_01G/GpL16-k0 (antibody, human IgG1, kappa, He Ab; alteration in one H chain only; also called He Ab) heavy 1: not shown heavy 2: not shown light: DIVMTQSPLSLPVTPGEPASISCQASESLVHSNRNTYLHWYLQKPGQSPQLLIYKVSNRFSGVPDRFSGSGSGTDFTLKISRVEAEDVGVYYCSQNTHVPPTFGQGTKVEIERTVAAPSVFIFPPSDEQLKSGTASVVCLLNNFYPREAKVQWKVDNALQSGNSQESVTEQDSKDSTYSLSSTLTLSKADYEKHKVYACEVTHQGLSSPVTKSFNRGEC |
| 33.4 % of control | 143 % of control | GpH7-A5/GpH7-B3 variant N325_04F/GpL16-k0 (antibody, human IgG1, kappa, He Ab; alteration in one H chain only; also called He Ab) heavy 1: not shown heavy 2: not shown light: DIVMTQSPLSLPVTPGEPASISCQASESLVHSNRNTYLHWYLQKPGQSPQLLIYKVSNRFSGVPDRFSGSGSGTDFTLKISRVEAEDVGVYYCSQNTHVPPTFGQGTKVEIERTVAAPSVFIFPPSDEQLKSGTASVVCLLNNFYPREAKVQWKVDNALQSGNSQESVTEQDSKDSTYSLSSTLTLSKADYEKHKVYACEVTHQGLSSPVTKSFNRGEC |
| 90 % of control | 193 % of control | GpH7-A5/GpH7-B3 variant L328_15Y/GpL16-k0 (antibody, human IgG1, kappa, He Ab; alteration in one H chain only; also called He Ab) heavy 1: not shown heavy 2: not shown light: DIVMTQSPLSLPVTPGEPASISCQASESLVHSNRNTYLHWYLQKPGQSPQLLIYKVSNRFSGVPDRFSGSGSGTDFTLKISRVEAEDVGVYYCSQNTHVPPTFGQGTKVEIERTVAAPSVFIFPPSDEQLKSGTASVVCLLNNFYPREAKVQWKVDNALQSGNSQESVTEQDSKDSTYSLSSTLTLSKADYEKHKVYACEVTHQGLSSPVTKSFNRGEC |
| 48.2 % of control | 217 % of control | GpH7-A5/GpH7-B3 variant N325_06M/GpL16-k0 (antibody, human IgG1, kappa, He Ab; alteration in one H chain only; also called He Ab) heavy 1: not shown heavy 2: not shown light: DIVMTQSPLSLPVTPGEPASISCQASESLVHSNRNTYLHWYLQKPGQSPQLLIYKVSNRFSGVPDRFSGSGSGTDFTLKISRVEAEDVGVYYCSQNTHVPPTFGQGTKVEIERTVAAPSVFIFPPSDEQLKSGTASVVCLLNNFYPREAKVQWKVDNALQSGNSQESVTEQDSKDSTYSLSSTLTLSKADYEKHKVYACEVTHQGLSSPVTKSFNRGEC |
| 45.2 % of control | 111 % of control | GpH7-A5/GpH7-B3 variant N325_03V/GpL16-k0 (antibody, human IgG1, kappa, He Ab; alteration in one H chain only; also called He Ab) heavy 1: not shown heavy 2: not shown light: DIVMTQSPLSLPVTPGEPASISCQASESLVHSNRNTYLHWYLQKPGQSPQLLIYKVSNRFSGVPDRFSGSGSGTDFTLKISRVEAEDVGVYYCSQNTHVPPTFGQGTKVEIERTVAAPSVFIFPPSDEQLKSGTASVVCLLNNFYPREAKVQWKVDNALQSGNSQESVTEQDSKDSTYSLSSTLTLSKADYEKHKVYACEVTHQGLSSPVTKSFNRGEC |
